Experimental data taken from the nanobody polyreactivity screen of Harvey et al. (2022).

Assay: yeast display, Sf9 membrane polyspecificity reagent, FACS + sequencing; frameworks hold sequencing errors
Method in brief: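 A synthetic nanobody library was expressed on Saccharomyces cerevisiae BJ5465 by galactose induction for 36–48 hours. The library was stained for 1 hour at 4 °C with 10% biotinylated, detergent-solubilized Sf9 membrane reagent and enriched with streptavidin microbeads before FACS. Low and high (top ~1%) gates were set on anti-HA fluorescence for expression and streptavidin fluorescence for reagent binding, and each polyreactivity label reflects the gate of origin.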

## QVQLVESGGGLVQAGGSLRLSCAASGFTFKSYAMGWYRQAPGKERELVASISRRGGSTYYADSVKGRFTISRDNAKNTVYLQMNSLKPEDTAVYYCAADKRPPYILDYWGLGTQVTVSS
  polyreactivity (PSR sort gate): high polyreactivity

## QVQLVESGGGLVQAGGSLRLSCAASGFTFKSYTMAWYRHAPGKERELVANISRRGGSTYYADSVKGRFTLSRDNAKNTVYLQMNSLKPEDTAVYYCAADAYGFLDTTYRYFYWGQGSQVTVSS
  polyreactivity (PSR sort gate): high polyreactivity

## QVQLVESGGGLVQAGGSLRLSCAASGFTFKVYNAMGWYRQAPGKERELVAAITSSVGGTYYADSVKGRFTISRDNAKNTFYLQMNSLKPEDTAVYYFATDGPISPYWEWPWLLYDYWGQGTQVTVSS
  polyreactivity (PSR sort gate): low polyreactivity

## QVQLVESGGGLVQAGGSLRLSCAASGFTFKWYAMGWYRQAPGKERELVATITIGGRTNYADSVKGRFTISRDNAKNTVYLQMNSLKPEDTAVYCCATFFVGFRLSDYDYWGQGTQVTVSS
  polyreactivity (PSR sort gate): low polyreactivity

## QVQLVESGGGLVQAGGSLRLSCAASGFTFKWYAMGWYRQAPGKERELVATITIGGRTNYADSVKGRFTISRDNAKNTVYLQMNSLKPEDTAVYYCAAESGKIVDFVWVLAYPRLDYWGQGTQVTVSS
  polyreactivity (PSR sort gate): low polyreactivity

## QVQLVESGGGLVQAGGSLRLSCAASGFTFKYNAMGWYRHAPGKERELVAAISSSDGTNYADSVKGRFTISRDNAKNTVYLQMNSLKQEDTAVYYCAADYFYLEDYYYWGQGSQVTVSS
  polyreactivity (PSR sort gate): low polyreactivity

## QVQLVESGGGLVQAGGSLRLSCAASGFTFKYYAMGWYRPAPRKERELVADITRSGGSTYYADSVKGRFTISRDNAKNTVYLQMNSLKPEDTAGYYCAVDPVRYPYSYDYWGQGTQVTGSS
  polyreactivity (PSR sort gate): high polyreactivity

## QVQLVESGGGLVQAGGSLRLSCAASGFTFKYYAMGWYRQAPGKERELVARISWSGGSTYYADSVKGRFTISRDNAKNTFYLQMNSLKPEDTAVYYCNTDVGYGFDYWGQGTQVTVSS
  polyreactivity (PSR sort gate): high polyreactivity

## QVQLVESGGGLVQAGGSLRLSCAASGFTFKYYAMGWYRQAPGKERELVARISWSGGSTYYADSVKGRFTISRDNAKNTVYLQMNSLKPEDTAVYYCAAKLYSKRTGARMNYWGQGTQVTVSS
  polyreactivity (PSR sort gate): high polyreactivity

## QVQLVESGGGLVQAGGSLRLSCAASGFTFLANGMGWYRQAPGKERELVAGITKDGGSTYADSVKGRFTISRDNAKNTVYLQMNSLKPEDTAVYYCAASIFSFSGGLNNGGTRGYWGQGTQVTVSS
  polyreactivity (PSR sort gate): low polyreactivity

## QVQLVESGGGLVQAGGSLRLSCAASGFTFLDYAMGWYRQAPGKERELVAAIDDSGGSTYYADSVKGRFTISRDNAKNTVYLQMNSLKPEDTAVYYCAADWYFFSQLYDYWGQGTQVTVSS
  polyreactivity (PSR sort gate): low polyreactivity

## QVQLVESGGGLVQAGGSLRLSCAASGFTFLKNAMGWYRQAPGKERELVAAITSSGGRTYYADSVKGRFTISRDNAKNTVYLQMNSLKPEDTAVYYCAADHTHGYVLYYNDNYWGQGTQVTVSS
  polyreactivity (PSR sort gate): high polyreactivity

## QVQLVESGGGLVQAGGSLRLSCAASGFTFLKNAMGWYRQAPGKERELVAAITSSGGRTYYADSVKGRFTISRDNAKYTVYLQMNSLKPEDTAVYYCNKGPLPGYDYWGQGNQVTVSS
  polyreactivity (PSR sort gate): high polyreactivity

## QVQLVESGGGLVQAGGSLRLSCAASGFTFLKYAMGWYRQAPGKERELVAAISWSGDSTYYADSVKGRFTISRDNAKNTVYLQMNSLKPEDTAVYYCAATYSFYGYYYWGQGTQVTVSS
  polyreactivity (PSR sort gate): high polyreactivity

## QVQLVESGGGLVQAGGSLRLSCAASGFTFLPYVMGWYRQAPGKERELVAAMSSSGGSTYYADSVKGRFTISRDNAKNTVYLQMNSLKPEDTAVYYCAKDIGVRRRDFEDYEYWGQGTQVTVSS
  polyreactivity (PSR sort gate): low polyreactivity

## QVQLVESGGGLVQAGGSLRLSCAASGFTFLRYAMGWYRQAPGKERELVAAITGGGNTNYADSVKGRFTISRDNAKNTVYLQMNSLKPEDTAVYYCNARRRYWPYREDYWGQGTQVTVSS
  polyreactivity (PSR sort gate): high polyreactivity

## QVQLVESGGGLVQAGGSLRLSCAASGFTFLRYAMGWYRQAPGKERELVAAITRGGTTYYADSVKGRFTISRDNAKNTVYLQMNSLKPEDTAVYYCNTLTSYTRYNYWGQGTQVTVSS
  polyreactivity (PSR sort gate): high polyreactivity
